This note sets out measurements from patent US20040136985A1, “Methods of modifying behavior of CD9-expressing cells” (priority 2002, published 2004).

The target in one experiment is peptide 6 (human). The experiment in a line: ELISA, FN 75 µg/ml on immobilized peptide (10 µM coat). On the technique in general: ELISA stands for enzyme-linked immunosorbent assay.
The target in a further experiment is peptide 5 (human). Described as above.
Experiment [1] concerns the target His6-rCD9 (human) (UniProt P21926). The experiment in a line: ELISA, absolute values, FN on immobilized His6-rCD9.
In experiment [2] the target is purified platelet CD9 (human) (UniProt P21926). The experiment in a line: ELISA, FN titrated on immobilized platelet CD9, 2.5 mM CaCl2.
Experiment [3] deals with His6-rCD9 (human) (UniProt P21926). The experiment in a line: ELISA, FN titrated on immobilized His6-rCD9, 2.5 mM Ca2+.
The target of experiment [4] is hamster integrin α5β1 on CHO cells (hamster). The experiment in a line: flow cytometry, CD9-CHO-K1 cells. A general note: In flow cytometry, cells or beads pass a laser one at a time.
Experiment [5] shares this target. The experiment in a line: flow cytometry, MOCK-CHO-K1 cells.
Experiment [6] deals with hamster integrin subunit β1 on CHO cells (hamster). The experiment in a line: flow cytometry, MOCK-CHO-B2 cells.
Experiment [7] shares this target. The experiment in a line: flow cytometry, CD9-CHO-K1 cells.
For experiment [8] the target is unchanged. The experiment in a line: flow cytometry, MOCK-CHO-K1 cells.
Experiment [9] shares this target. Put plainly: flow cytometry, CD9-CHO-B2 cells.

Broadly, the EC50 is the concentration that produces a half-maximal response. Low values mean greater potency, high ones weaker potency.

Where “and” joins values, the source holds several entries; their conditions need not be identical. Equal values may be shown once.

Sequence of human plasma fibronectin, P02751 32-2296 (ligand) (P02751 other isoform, or with tags, fused parts or gaps limits assumed): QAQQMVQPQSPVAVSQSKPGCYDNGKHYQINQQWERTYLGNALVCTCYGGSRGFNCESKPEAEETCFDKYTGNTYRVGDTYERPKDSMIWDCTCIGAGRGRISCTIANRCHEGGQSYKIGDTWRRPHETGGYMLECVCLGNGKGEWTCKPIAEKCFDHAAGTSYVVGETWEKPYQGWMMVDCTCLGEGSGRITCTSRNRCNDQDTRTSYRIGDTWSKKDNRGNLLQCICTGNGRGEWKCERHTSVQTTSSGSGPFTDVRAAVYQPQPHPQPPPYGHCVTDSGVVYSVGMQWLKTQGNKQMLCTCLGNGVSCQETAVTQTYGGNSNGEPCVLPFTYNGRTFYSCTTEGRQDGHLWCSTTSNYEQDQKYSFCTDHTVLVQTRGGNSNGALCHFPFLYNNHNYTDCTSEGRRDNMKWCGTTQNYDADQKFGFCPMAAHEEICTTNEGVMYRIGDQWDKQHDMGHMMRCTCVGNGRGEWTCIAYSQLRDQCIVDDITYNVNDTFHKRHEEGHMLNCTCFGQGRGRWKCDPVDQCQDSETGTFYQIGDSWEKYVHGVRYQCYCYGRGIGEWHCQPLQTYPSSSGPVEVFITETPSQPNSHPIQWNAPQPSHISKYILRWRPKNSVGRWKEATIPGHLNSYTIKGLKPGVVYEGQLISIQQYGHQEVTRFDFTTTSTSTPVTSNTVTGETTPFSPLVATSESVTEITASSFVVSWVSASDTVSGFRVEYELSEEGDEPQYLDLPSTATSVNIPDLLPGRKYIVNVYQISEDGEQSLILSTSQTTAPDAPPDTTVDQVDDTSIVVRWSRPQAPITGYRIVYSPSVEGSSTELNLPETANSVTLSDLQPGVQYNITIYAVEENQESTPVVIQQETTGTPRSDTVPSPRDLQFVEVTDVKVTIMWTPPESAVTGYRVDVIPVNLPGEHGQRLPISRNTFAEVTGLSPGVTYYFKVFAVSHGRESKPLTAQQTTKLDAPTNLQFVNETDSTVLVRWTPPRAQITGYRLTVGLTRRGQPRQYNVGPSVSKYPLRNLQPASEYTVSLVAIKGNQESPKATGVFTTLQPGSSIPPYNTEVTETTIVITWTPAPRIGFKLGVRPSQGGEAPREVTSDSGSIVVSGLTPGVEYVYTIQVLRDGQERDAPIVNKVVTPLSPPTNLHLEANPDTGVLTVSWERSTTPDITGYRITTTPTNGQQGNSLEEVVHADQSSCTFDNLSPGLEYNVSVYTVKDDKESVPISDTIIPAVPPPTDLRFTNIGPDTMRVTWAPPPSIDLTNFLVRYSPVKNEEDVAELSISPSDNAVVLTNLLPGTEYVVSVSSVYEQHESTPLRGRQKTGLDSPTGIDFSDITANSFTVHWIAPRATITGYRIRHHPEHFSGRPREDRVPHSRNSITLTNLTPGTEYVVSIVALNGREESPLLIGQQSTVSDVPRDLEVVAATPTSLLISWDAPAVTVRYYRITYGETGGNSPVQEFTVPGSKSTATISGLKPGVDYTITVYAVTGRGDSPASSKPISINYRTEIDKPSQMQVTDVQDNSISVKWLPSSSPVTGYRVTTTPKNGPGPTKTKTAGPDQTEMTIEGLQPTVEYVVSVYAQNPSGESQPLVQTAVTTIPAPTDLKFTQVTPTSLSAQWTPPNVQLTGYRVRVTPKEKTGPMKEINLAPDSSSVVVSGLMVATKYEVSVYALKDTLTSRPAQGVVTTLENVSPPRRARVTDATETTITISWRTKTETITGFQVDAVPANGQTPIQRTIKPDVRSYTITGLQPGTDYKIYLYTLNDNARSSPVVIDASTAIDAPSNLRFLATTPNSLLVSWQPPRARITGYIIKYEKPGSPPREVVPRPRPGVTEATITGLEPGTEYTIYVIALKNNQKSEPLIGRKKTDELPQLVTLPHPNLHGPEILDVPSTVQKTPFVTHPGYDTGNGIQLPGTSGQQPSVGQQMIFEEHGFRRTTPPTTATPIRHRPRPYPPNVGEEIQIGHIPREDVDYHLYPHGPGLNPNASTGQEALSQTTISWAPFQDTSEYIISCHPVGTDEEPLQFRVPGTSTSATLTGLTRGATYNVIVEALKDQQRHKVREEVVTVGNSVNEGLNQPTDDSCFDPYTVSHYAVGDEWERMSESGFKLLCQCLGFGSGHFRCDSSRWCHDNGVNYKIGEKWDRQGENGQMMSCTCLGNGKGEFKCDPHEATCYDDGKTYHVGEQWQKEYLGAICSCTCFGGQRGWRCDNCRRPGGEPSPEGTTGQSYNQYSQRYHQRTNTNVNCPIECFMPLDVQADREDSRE
Sequence of purified platelet CD9 (human) (P21926 2-228 limits assumed): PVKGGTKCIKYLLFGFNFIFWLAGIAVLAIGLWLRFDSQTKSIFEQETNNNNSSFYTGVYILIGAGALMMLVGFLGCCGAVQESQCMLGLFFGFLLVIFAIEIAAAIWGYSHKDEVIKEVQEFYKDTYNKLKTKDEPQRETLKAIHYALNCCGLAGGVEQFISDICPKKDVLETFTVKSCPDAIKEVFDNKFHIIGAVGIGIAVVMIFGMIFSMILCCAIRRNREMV
Sequence of His6-rCD9 (human) (P21926 whole entry): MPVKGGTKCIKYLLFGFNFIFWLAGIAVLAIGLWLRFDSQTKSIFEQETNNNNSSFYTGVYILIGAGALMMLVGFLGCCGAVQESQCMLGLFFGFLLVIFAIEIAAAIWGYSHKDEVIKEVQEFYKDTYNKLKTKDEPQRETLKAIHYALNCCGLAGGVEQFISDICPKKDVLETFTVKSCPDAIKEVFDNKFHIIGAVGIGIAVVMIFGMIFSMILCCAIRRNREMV
Sequence of peptide 6 (human) (chain, as listed by the source): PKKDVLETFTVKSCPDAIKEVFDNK
Sequence of peptide 5 (human) (chain, as listed by the source): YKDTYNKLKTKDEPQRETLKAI

For “human plasma fibronectin, P02751 32-2296 (ligand)”, the binding relative to intact platelet purified CD9 (% of binding to platelet CD9) was 65 with peptide 6 (human) and 19 with peptide 5 (human). The ELISA binding against purified CD9 (% lower than purified CD9) with His6-rCD9 (human) [1] came to 40. For the same substance, the 50% effective concentration (EC50) is 35.6 µg/mL and 81 nM in experiment [2]; 120 nM with His6-rCD9 (human) [3].

Consider antibody PB1, for which, in experiment [4], the % positive amounted to 98% and the Fold-increase (over isotype control) (fold MFI over isotype control) is 4. For the same substance, in experiment [5], the % positive turned out to be 100% and the Fold-increase (over isotype control) (fold MFI over isotype control) came to 4.

antibody 7E2: the % positive in experiment [6] came to 100%; in experiment [7], 97%; in experiment [8], 100%; in experiment [9], 100%. Further, the Fold-increase (over isotype control) (fold MFI over isotype control) amounted to 0 in [6], 6 in [7], 7 in experiment [8] and 6 in experiment [9].
